One may read the Km as the substrate concentration at which the rate is half of its maximum. A word on the kcat: it is the number of substrate molecules converted per active site and unit of time at saturation. Broadly, the kcat/Km is the second-order rate constant that governs catalysis at low substrate concentration.

To fix the notation:
B1: unnamed (protein)
chain: MRPPQCLLHTPSLASPLLLLLLWLLGGGVGAEGREDAELLVTVRGGRLRGIRLKTPGGPVSAFLGIPFAEPPMGPRRFLPPEPKQPWSGVVDATTFQSVCYQYVDTLYPGFEGTEMANPNRELSEDCLYLNVWTPYPRPTSPTPVLVWIYGGGFYSGASSLDVYDGRFLVQAERTVLVSMNYRVGAFGFLALPGSREAPGNVGLLDQRLALQWVQENVAAFGGDPTSVTLFGESAGAASVGMHLLSPPSRGLFHRAVLQSGAPNGPWATVGMGEARRRATQLAHLVGCPPGGTGGNDTELVACLRTRPAQVLVNHEWHVLPQESVFRFSFVPVVDGDFLSDTPEALINAGDFHGLQVLVGVVKDEGSYFLVYGAPGFSKDNESLISRAEFLAGVRVGVPQVSDLAAEAVVLHYTDWLHPEDPARLREALSDVVGDHNVVCPVAQLAGRLAAQGARVYAYVFEHRASTLSWPLWMGVPHGYEIEFIFGIPLDPSRNYTAEEKIFAQRLMRYWANFARTGDPNEPRDPKAPQWPPYTAGAQQYVSLDLRPLEVRRGLRAQACAFWNRFLPKLLSATDTLDEAERQWKAEFHRWSSYMVHWKNQFDHYSKQDRCSDL
B2: unnamed (protein)
chain: B1 chain with A117W
B3: unnamed (protein)
chain: B1 chain with A117W, F369A
B4: unnamed (protein)
chain: B1 chain with A117W, W317A
B5: unnamed (protein)
chain: B1 chain with A117W, Y368F

Residue numbers refer to the chain shown, from its start.

Substrate in the series: p-NP-C2
The note with it: pH 8; 27 °C.
Consider B1, for which the Km was 3 mM, the kcat came out at 3170 s⁻¹ and the kcat/Km came out at 1.06e+06 s⁻¹ M⁻¹.

Consider B2, for which the Km is 5.6 mM, the kcat was 1830 s⁻¹ and the kcat/Km amounted to 327000 s⁻¹ M⁻¹.

Take B3: the Km came out at 8.6 mM, the kcat was determined as 333 s⁻¹ and the kcat/Km is 38800 s⁻¹ M⁻¹.

As for B4, the Km worked out at 4.6 mM, the kcat was 2170 s⁻¹ and the kcat/Km was found to be 471000 s⁻¹ M⁻¹.

As for B5, the Km amounted to 5.4 mM, the kcat came out at 1600 s⁻¹ and the kcat/Km was 296000 s⁻¹ M⁻¹.
